Like-named read-outs stand apart in the source and are kept apart here.
T1: Cynomolgus monkey GDF15 protein (cynomolgus monkey, UniProt G7PWZ3 193-308)
T1 construct: Bought protein (Kactus Biosystems GDF-CE115); also called Cynomolgus GDF15 protein; Cynomolgus-GDF15
T1 sequence: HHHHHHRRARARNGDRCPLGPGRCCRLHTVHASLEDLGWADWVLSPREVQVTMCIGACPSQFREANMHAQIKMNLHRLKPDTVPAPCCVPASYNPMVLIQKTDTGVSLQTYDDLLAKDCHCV

T2: Mouse GDF15 protein (mouse, UniProt Q9Z0J7 189-303)
T2 sequence: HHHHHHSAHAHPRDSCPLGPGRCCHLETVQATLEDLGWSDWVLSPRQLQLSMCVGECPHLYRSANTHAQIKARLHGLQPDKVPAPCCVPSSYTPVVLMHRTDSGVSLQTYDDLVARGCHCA

T3: Human GDF15 protein (human, UniProt Q99988 197-308)
T3 construct: Natural GDF15 is said to be a disulfide-linked homodimer; also called Human-GDF15-his
T3 sequence: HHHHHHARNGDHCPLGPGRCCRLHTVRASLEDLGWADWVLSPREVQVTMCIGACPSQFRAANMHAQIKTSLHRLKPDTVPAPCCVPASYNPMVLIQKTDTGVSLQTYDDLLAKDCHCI

T4: human GDNF protein (human, UniProt P39905 78-211)
T4 construct: Bought
T4 sequence (looked up): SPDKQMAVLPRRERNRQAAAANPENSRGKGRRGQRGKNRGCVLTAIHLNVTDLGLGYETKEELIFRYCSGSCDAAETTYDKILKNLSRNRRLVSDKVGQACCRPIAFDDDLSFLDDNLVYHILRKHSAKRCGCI

T5: human GFRα1 protein (human, UniProt P56159 25-429, limits assumed)
T5 construct: Bought
T5 sequence (looked up): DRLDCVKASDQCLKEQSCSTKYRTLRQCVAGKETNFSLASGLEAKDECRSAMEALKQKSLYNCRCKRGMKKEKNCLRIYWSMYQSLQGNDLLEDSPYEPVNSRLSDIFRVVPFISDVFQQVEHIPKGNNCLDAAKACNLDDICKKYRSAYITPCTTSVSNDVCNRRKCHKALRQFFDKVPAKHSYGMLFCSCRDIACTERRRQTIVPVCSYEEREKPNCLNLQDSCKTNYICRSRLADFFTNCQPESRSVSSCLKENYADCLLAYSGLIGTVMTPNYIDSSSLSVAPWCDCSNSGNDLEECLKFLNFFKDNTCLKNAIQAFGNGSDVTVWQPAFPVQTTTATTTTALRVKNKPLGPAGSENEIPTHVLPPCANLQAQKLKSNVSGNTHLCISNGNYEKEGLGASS

T6: human GDF2 protein (human, UniProt Q9UK05 320-429)
T6 construct: Bought
T6 sequence (looked up): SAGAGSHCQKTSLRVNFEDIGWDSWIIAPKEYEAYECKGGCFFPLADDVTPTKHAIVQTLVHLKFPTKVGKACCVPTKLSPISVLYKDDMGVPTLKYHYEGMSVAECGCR

T7: human BMP4 protein (human, UniProt P12644 293-408)
T7 construct: Bought
T7 sequence (looked up): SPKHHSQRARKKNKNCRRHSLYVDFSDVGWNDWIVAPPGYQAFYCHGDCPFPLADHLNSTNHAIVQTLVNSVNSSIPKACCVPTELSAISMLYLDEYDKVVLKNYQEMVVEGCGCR

T8: human Activin A protein (human, UniProt P08476 311-426)
T8 construct: Bought; Activin A is by nature a dimer of inhibin beta A chains
T8 sequence (looked up): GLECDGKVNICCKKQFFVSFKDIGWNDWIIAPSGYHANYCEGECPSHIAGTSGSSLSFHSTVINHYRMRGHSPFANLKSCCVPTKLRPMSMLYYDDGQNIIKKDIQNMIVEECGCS

T9: human GDF3 protein (human, UniProt Q9NR23 251-364, limits assumed)
T9 construct: Bought
T9 sequence (looked up): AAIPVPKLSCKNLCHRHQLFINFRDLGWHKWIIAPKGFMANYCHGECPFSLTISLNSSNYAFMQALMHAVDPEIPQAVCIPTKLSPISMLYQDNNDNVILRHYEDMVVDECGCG

T10: human GDF1 protein (human, UniProt P27539 254-372, limits assumed)
T10 construct: Bought
T10 sequence (looked up): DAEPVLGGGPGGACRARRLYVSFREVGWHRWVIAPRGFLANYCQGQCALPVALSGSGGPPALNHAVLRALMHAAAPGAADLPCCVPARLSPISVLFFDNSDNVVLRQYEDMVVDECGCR


Key:
[1] = molecular target: T1, Cynomolgus monkey GDF15 protein; test: BLI (Fortebio Octet), antibody on AHC sensor, GDF15 as analyte, 1:1 model
[2] = molecular target: T2, Mouse GDF15 protein; test: as above
[3] = molecular target: T3, Human GDF15 protein; test: as above
[4] = molecular target: T4, human GDNF protein; test: ELISA, coated protein, antibody at 4 µg/mL
[5] = molecular target: T4, human GDNF protein; test: ELISA, coated protein
[6] = molecular target: human AMH protein (human) (UniProt P03971); test: ELISA, coated protein, antibody at 4 µg/mL
[7] = molecular target: human GDF8 protein (human) (UniProt O14793); test: ELISA, coated protein, antibody at 4 µg/mL
[8] = molecular target: T11, human BMP2 protein (human, UniProt P12643 283-396); test: ELISA, coated protein, antibody at 4 µg/mL
T11 construct: Bought
T11 sequence (P12643 283-396 limits assumed): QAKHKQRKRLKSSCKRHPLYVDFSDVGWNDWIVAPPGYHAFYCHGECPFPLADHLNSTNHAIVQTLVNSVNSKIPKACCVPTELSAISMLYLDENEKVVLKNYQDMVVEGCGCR

[9] = molecular target: T5, human GFRα1 protein; test: ELISA, coated protein, antibody at 4 µg/mL
[10] = molecular target: T6, human GDF2 protein; test: ELISA, coated protein, antibody at 4 µg/mL
[11] = molecular target: T7, human BMP4 protein; test: ELISA, coated protein, antibody at 4 µg/mL
[12] = molecular target: T8, human Activin A protein; test: ELISA, coated protein, antibody at 4 µg/mL
[13] = molecular target: T9, human GDF3 protein; test: ELISA, coated protein, antibody at 4 µg/mL
[14] = molecular target: T12, human TGFβ1 protein (human, UniProt P01137 279-390); test: ELISA, coated protein, antibody at 4 µg/mL
T12 construct: Bought
T12 sequence (P01137 279-390 limits assumed): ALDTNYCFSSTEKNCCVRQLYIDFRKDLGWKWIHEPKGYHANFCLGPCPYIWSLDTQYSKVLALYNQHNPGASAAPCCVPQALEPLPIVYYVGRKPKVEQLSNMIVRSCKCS

[15] = molecular target: T4, human GDNF protein; test: ELISA, coated protein, antibody at 4 µg/mL; remark: listed apart in the source
[16] = molecular target: T10, human GDF1 protein; test: ELISA, coated protein, antibody at 4 µg/mL

Kd [1] [nM] | koff [1] [s⁻¹] | kon [1] [M⁻¹ s⁻¹] | Kd [2] [nM] | koff [2] [s⁻¹] | kon [2] [M⁻¹ s⁻¹] | Kd [3] [nM] | koff [3] [s⁻¹] | kon [3] [M⁻¹ s⁻¹] | OD value [4] [OD 450 nm-620 nm] | binding result [5] | Binder | also measured
0.231 | 6.13e-05 | 265000 | 10.6 | 0.00116 | 110000 | 0.0515 | 4.87e-05 | 946000 | 0.105 | no binding (tested: 4 µg/mL) | Hu21H6D2 (antibody, human IgG1, kappa, V domains shown, Humanized form of murine 21H6D2; human IgG1 constant region with L234A, L235A, G237A and kappa light chain constant region; also called hu21H6D2-IgG1-mut(L234A,L235A,G237A)) VH: QVQLVQSGAEVKKPGASVKVSCKASGYTFTGYIMNWVRQAPGQRLEWMGDIDPYYGDAKYNQKFKGKVTITVDKSASTAYMELSSLRSEDTAVYYCARRDYDHGSFAYWGQGTLVTVSS VL: EIVLTQSPDFQSVTPKEKVTITCSASSSVNYMHWYQQKPDQSPKRLIYDTSKLASGVPSRFSGSGSGTDYTLTINSLEAEDAATYYCQQWSSNPPTFGQGTKLEIKR | –
0.312 | 8.24e-05 | 265000 | 14.9 | 0.00241 | 162000 | 0.0264 | 2.35e-05 | 887000 | 0.0531 | no binding (tested: 4 µg/mL) | Hu19C4C7 (antibody, human IgG1, kappa, Humanized form of murine 19C4C7; human IgG1 constant region with L234A, L235A, G237A and kappa light chain constant region; also called hu19C4C7-IgG1-mut(L234A,L235A,G237A)) heavy: QVQLVQSGAEVKKPGSSVKVSCKASGYSFTGYIMNWVRQAPGQSLEWMGDIDPYYGGPNYNQKFQGRVTITVDKSTSTAYMELSSLRSEDTAVYYCSRRDYNYGSFAYWGQGTLVTVSSASTKGPSVFPLAPSSKSTSGGTAALGCLVKDYFPEPVTVSWNSGALTSGVHTFPAVLQSSGLYSLSSVVTVPSSSLGTQTYICNVNHKPSNTKVDKKVEPKSCDKTHTCPPCPAPEAAGAPSVFLFPPKPKDTLMISRTPEVTCVVVDVSHEDPEVKFNWYVDGVEVHNAKTKPREEQYNSTYRVVSVLTVLHQDWLNGKEYKCKVSNKALPAPIEKTISKAKGQPREPQVYTLPPSREEMTKNQVSLTCLVKGFYPSDIAVEWESNGQPENNYKTTPPVLDSDGSFFLYSKLTVDKSRWQQGNVFSCSVMHEALHNHYTQKSLSLSPGK light: QIVLTQSPATLSLSPGERATLSCRASSSVNYMHWYQQKPGQAPRPLIYATSNLATGIPARFSGSGSGTDYTLTISSLEPEDFAVYYCQQWSDNPPTFGQGTKLEIKRTVAAPSVFIFPPSDEQLKSGTASVVCLLNNFYPREAKVQWKVDNALQSGNSQESVTEQDSKDSTYSLSSTLTLSKADYEKHKVYACEVTHQGLSSPVTKSFNRGEC | OD value (OD 450 nm-620 nm) [6]: 0.0887; OD value (OD 450 nm-620 nm) [7]: 0.0505; OD value [8]: 0.0764 OD 450 nm-620 nm; OD value [9]: 0.11 OD 450 nm-620 nm; OD value [10]: 0.0616 OD 450 nm-620 nm; OD value [11]: 0.0587 OD 450 nm-620 nm; OD value [12]: 0.0595 OD 450 nm-620 nm; OD value [13]: 0.0862 OD 450 nm-620 nm; OD value [14]: 0.103 OD 450 nm-620 nm; OD value [15]: 0.241 OD 450 nm-620 nm; OD value [16]: 0.201 OD 450 nm-620 nm
< 0.001 | < 1e-07 | 205000 | 1.25 | 6.58e-05 | 52500 | < 0.001 | < 1e-07 | 573000 | – | – | HuVHH43-3 (Fc fusion, also called huVHH43-IgG1-mut(L234A,L235A,G237A); VHH humanized anti-GDF15 antibody) heavy: QLQLVESGGGLVQPGGSLRLSCAASGHTYGMGWFRQAPGKAREIVSAISRSGSSTYYADSVKGRFTISRDNSKNTLYLQMNSLRAEDTAVYICGASTSALVPTTTGMYAYWGQGTRVTVSSEPKSSDKTHTCPPCPAPEAAGAPSVFLFPPKPKDTLMISRTPEVTCVVVDVSHEDPEVKFNWYVDGVEVHNAKTKPREEQYNSTYRVVSVLTVLHQDWLNGKEYKCKVSNKALPAPIEKTISKAKGQPREPQVYTLPPSREEMTKNQVSLTCLVKGFYPSDIAVEWESNGQPENNYKTTPPVLDSDGSFFLYSKLTVDKSRWQQGNVFSCSVMHEALHNHYTQKSLSLSPGK | –

Source: patent publication EP4818204A1 (Nanjing Leads Biolabs Co., Ltd., dated 2026)
